The values that follow come from US20190316150A1.

Holding throughout (assay): cell-based or functional assay
Experiment [1] deals with T1, GFP-AtJAZ^FL (Arabidopsis thaliana) (UniProt Q9LMA8).
T1 sequence: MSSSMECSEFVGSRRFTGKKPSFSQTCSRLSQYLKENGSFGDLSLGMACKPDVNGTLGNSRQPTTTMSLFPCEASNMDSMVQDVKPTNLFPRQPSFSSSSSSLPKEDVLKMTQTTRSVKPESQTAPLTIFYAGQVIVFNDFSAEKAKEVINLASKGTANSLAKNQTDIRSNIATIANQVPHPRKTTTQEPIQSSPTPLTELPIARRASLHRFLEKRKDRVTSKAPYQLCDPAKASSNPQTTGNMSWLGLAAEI

Experiment [2] deals with T2, GFP-OsJAZ^23 (Oryza sativa).
T2 sequence: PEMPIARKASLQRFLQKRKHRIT

Experiment [3] has as its target T3, NLS-GFP-OsJAZ^33 (SV40; Oryza sativa).
T3 sequence: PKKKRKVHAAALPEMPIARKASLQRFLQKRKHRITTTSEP

For experiment [4], the target named is OsJAZ^33-p53 (Oryza sativa; human) (UniProt P04637).

B1: OsTIR1^F-box-OsCOI1B^LRR (receptor)
chain: MYPYDVPDYATYFPEEVVEHIFSFLPAQRDRNTVSLVCKVWYEIERLSRKHVTVPFCYAASPAHLLARFPRLESLAVKGKPRAAMYGLIPEDWGAYARPWVAELAAPLECLKALHLRRMVVTDDDLAALVRARGHMLQELKLDKCSGFSTDALRLVARSCRSLRTLFLEECSIADNGTEWLHDLAVNNPVLETLNFHMTELTVVPADLELLAKKCKSLISLKISDCDFSDLIGFFRMAASLQEFAGGAFIEQGELTKYGNVKFPSRLCSLGLTYMGTNEMPIIFPFSALLKKLDLQYTFLTTEDHCQLIAKCPNLLVLAVRNVIGDRGLGVVADTCKKLQRLRVERGDDDPGLQEEQGGVSQVGLTTVAVGCRELEYIAAYVSDITNGALESIGTFCKNLCDFRLVLLDREERITDLPLDNGVRALLRGCTKLRRFALYLRPGGLSDTGLGYIGQYSGIIQYMLLGNVGETDDGLIRFALGCENLRKLELRSCCFSEQALARAIRSMPSLRYVWVQGYKASKTGHDLMLMARPFWNIEFTPPSSENANRMREDGEPCVDSQAQILAYYSLAGKRSDCPRSVVPLYPA
B1: in experiment [1], the coronatine-induced GFP degradation, flow cytometry, HEK-293T, pJAZ version 6-AtFL stood at 95%. The molecule also gave a coronatine-dependent GFP degradation, flow cytometry, HEK-293T, pJAZ version 6-Os23 in experiment [2] of 90%. In experiment [3], this molecule gave a coronatine-induced GFP degradation, flow cytometry, HEK-293T, pJAZ version 7 of over 95%; a coronatine-induced degradation, flow cytometry, several cell types carrying pJAZ and pRAIDRS of 90 to 99%. This molecule had a coronatine-dependent degradation, western blot quantification, H9 hESCs, 50 µM coronatine 1 day in experiment [4] of 90%.
